From patent publication US20120100140A1 (Biogen, published 2012)

Legend:
CD64 (FcγRI) [1] = biological target: T1, CD64 (FcγRI) (UniProt P12314 16-288, limits assumed); experiment: solution affinity SPR: antibody titrated into CD64, inhibition of CD64 binding to immobilized IgG1 MAb; average of two titrations
T1 construct: Soluble Fc receptor used in solution; source and construct not described

CD16 (FcγRIIIa V158) = biological target: T2, CD16 (FcγRIIIa V158) (UniProt P08637 17-208, limits assumed); experiment: solution affinity SPR: antibody titrated into CD16, inhibition of CD16 binding to immobilized IgG1 MAb; average of two titrations
T2 construct: V158 allotype as printed; source and construct not described; also called Fc gamma III receptor
T2 sequence (P08637 17-208 F176V limits assumed): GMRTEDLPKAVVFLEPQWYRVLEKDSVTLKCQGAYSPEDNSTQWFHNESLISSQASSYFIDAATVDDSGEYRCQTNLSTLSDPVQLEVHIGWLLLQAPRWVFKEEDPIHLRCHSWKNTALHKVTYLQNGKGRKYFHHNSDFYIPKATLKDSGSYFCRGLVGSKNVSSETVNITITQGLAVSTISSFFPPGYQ

CD64 (FcγRI) [2] = biological target: T1, CD64 (FcγRI); experiment: solution affinity SPR: inhibition of CD64 binding to immobilized IgG1 MAb

T1 sequence (P12314 16-288 limits assumed): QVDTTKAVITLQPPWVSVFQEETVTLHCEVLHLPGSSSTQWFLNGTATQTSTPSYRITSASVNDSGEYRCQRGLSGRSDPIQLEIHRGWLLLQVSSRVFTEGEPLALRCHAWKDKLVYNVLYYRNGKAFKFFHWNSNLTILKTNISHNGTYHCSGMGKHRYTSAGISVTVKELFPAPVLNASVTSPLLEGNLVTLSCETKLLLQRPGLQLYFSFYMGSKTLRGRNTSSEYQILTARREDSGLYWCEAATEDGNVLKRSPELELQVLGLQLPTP

Row | Binder | IC50 (CD64 (FcγRI) [1]) [µM] | IC50 (CD16 (FcγRIIIa V158)) [µM] | IC50 (CD64 (FcγRI) [2]) [µM]
1 | pEAG2300 (hu5c8, IgG4 chimeric hinge + IgG1 CH3, glycosylated) (antibody) chain 1: QVQLVQSGAEVVKPGASVKLSCKASGYIFTSYYMYWVKQAPGQGLEWIGEINPSNGDTNFNEKFKSKATLTVDKSASTAYMELSSLRSEDTAVYYCTRSDGRNDMDSWGQGTLVTVSSASTKGPSVFPLAPCSRSTSESTAALGCLVKDYFPEPVTVSWNSGALTSGVHTFPAVLQSSGLYSLSSVVTVPSSSLGTKTYTCNVDHKPSNTKVDKRVESKYGPPCPPCPAPPVAGPSVFLFPPKPKDTLMISRTPEVTCVVVDVSQEDPEVQFNWYVDGVEVHNAKTKPREEQFNSTYRVVSVLTVLHQDWLNGKEYKCKVSNKGLPSSIEKTISKAKGQPREPQVYTLPPSRDELTKNQVSLTCLVKGFYPSDIAVEWESNGQPENNYKTTPPVLDSDGSFFLYSKLTVDKSRWQQGNVFSCSVMHEALHNHYTQKSLSLSPG chain 2: DIVLTQSPATLSVSPGERATISCRASQRVSSSTYSYMHWYQQKPGQPPKLLIKYASNLESGVPARFSGSGSGTDFTLTISSVEPEDFATYYCQHSWEIPPTFGGGTKLEIKRTVAAPSVFIFPPSDEQLKSGTASVVCLLNNFYPREAKVQWKVDNALQSGNSQESVTEQDSKDSTYSLSSTLTLSKADYEKHKVYACEVTHQGLSSPVTKSFNRGEC | 3020 |  | 
2 | IgG4.P T299A (hu5c8 aglycosylated IgG4.P S228P, T299A) (antibody) chain 1: not shown chain 2: DIVLTQSPATLSVSPGERATISCRASQRVSSSTYSYMHWYQQKPGQPPKLLIKYASNLESGVPARFSGSGSGTDFTLTISSVEPEDFATYYCQHSWEIPPTFGGGTKLEIKRTVAAPSVFIFPPSDEQLKSGTASVVCLLNNFYPREAKVQWKVDNALQSGNSQESVTEQDSKDSTYSLSSTLTLSKADYEKHKVYACEVTHQGLSSPVTKSFNRGEC | 739 |  | 
3 | EC300 (hu5c8 IgG4.P S228P, T307P, glycosylated) (antibody) chain 1: not shown chain 2: DIVLTQSPATLSVSPGERATISCRASQRVSSSTYSYMHWYQQKPGQPPKLLIKYASNLESGVPARFSGSGSGTDFTLTISSVEPEDFATYYCQHSWEIPPTFGGGTKLEIKRTVAAPSVFIFPPSDEQLKSGTASVVCLLNNFYPREAKVQWKVDNALQSGNSQESVTEQDSKDSTYSLSSTLTLSKADYEKHKVYACEVTHQGLSSPVTKSFNRGEC | 11.2 | 564 | ~8
